Test results: paper PMC5365662, “A Short Double-Stapled Peptide Inhibits Respiratory Syncytial Virus Entry and Spreading” (Antimicrobial Agents and Chemotherapy, 2017)
Bridge positions count the residues as written; N and C are the ends. Square brackets hold non-standard residues; d marks the D form. Peptide text beside a SMILES is read from it. R8 = C=CCCCCCC[C@@](C)(N)C(=O)O; S5 = C=CCCC[C@](C)(N)C(=O)O

Experiments:
[1] = system: rHRSV-mCherry in HEp-2 cells; test: rHRSV-mCherry inhibition assay; assay type: cell-based, human respiratory syncytial virus; details: Table 3 (Ala scan); HEp-2 cells, rHRSV-mCherry MOI 0.2, 2-fold serial dilutions (11 dilutions), duplicate; ± SD of fit
Description: To measure the inhibitory activity of the peptide, the mCherry red fluorescence was quantified 48 h postinfection (p.i.).
Viral replication was quantified by measuring the mCherry fluorescence at 48 h p.i. and normalized based on the fluorescence of infected and untreated cells. (B) Cytotoxicity assay. HEp-2 cells were incubated in the presence of serial dilutions of peptides, and cell survival was quantified using the CellTiter-Glo Luminescent cell viability assay 24 h after the addition of the peptides. The signal was normalized based on the luminescence obtained for untreated cells. Error bars are standard deviations from duplicates.
HEp-2 cells were seeded at 5 × 10^4 cells per well in a 96-well plate the day before the infection. Peptides were 2-fold serially diluted in dimethyl sulfoxide (DMSO) (11 dilutions) and then further diluted in EMEM without phenol red and preincubated for 15 to 20 min with rHRSV-mCherry ([24]) at a final dilution with an MOI of 0.2 ([24]). The cells were incubated with the virus-peptide mixtures for a period of 1.5 to 2 h. The medium was then replaced by EMEM without phenol red containing 2% fetal bovine serum and the same concentration of peptide as the one that was used during the infection step. Plates were incubated 48 h at 37°C, and the mCherry fluorescence was measured using a spectrofluorometer (Tecan infinite M200PRO) with excitation and emission wavelengths of 580 and 620 nm, respectively. Relative fluorescence was normalized by the fluorescence of nontreated infected cells. Noninfected HEp-2 cells were used as standards for fluorescence background levels. Each experiment was performed in duplicate and repeated at least twice. The resulting inhibition curves were fitted in Igor Pro as described above.

circular dichroism = details: 10 mM phosphate; pH 7.5; 25 °C; 50 uM

Compound	EC50 [1] [nM]	helicity (circular dichroism) [%]
CC[C@H](C)[C@H](NC(=O)[C@H](CCCCN)NC(=O)[C@H](CCC(=O)O)NC(C)=O)C(=O)N[C@@]1(C)CCCC=CCCC[C@@](C)(C(=O)N[C@@H](Cc2ccccc2)C(=O)N[C@H](C(=O)N[C@@]2(C)CCCC=CCCC[C@@](C)(C(=O)N[C@@H](CC(C)C)C(=O)N[C@@H](CC(C)C)C(=O)N[C@@H](Cc3c[nH]cn3)C(=O)N[C@@H](CC(N)=O)C(=O)N[C@H](C(N)=O)C(C)C)NC(=O)[C@H](CC(=O)O)NC(=O)[C@H](CO)NC(=O)[C@H](CCCCN)NC2=O)[C@@H](C)CC)NC(=O)[C@H](C)NC(=O)[C@H](CO)NC(=O)[C@H](CCC(N)=O)NC1=O [Peptide L503A] (Ac-EKI[S5]QSA[S5]FI[S5]KSD[S5]LLHNV-NH2; staple 4-8, 11-15)	950 ± 530	38
CC[C@H](C)[C@H](NC(=O)[C@H](CCCCN)NC(=O)[C@H](CCC(=O)O)NC(C)=O)C(=O)N[C@@]1(C)CCCC=CCCC[C@@](C)(C(=O)N[C@@H](Cc2ccccc2)C(=O)N[C@H](C(=O)N[C@@]2(C)CCCC=CCCC[C@@](C)(C(=O)N[C@@H](CC(C)C)C(=O)N[C@@H](CC(C)C)C(=O)N[C@@H](Cc3c[nH]cn3)C(=O)N[C@@H](CC(N)=O)C(=O)N[C@@H](C)C(N)=O)NC(=O)[C@H](CC(=O)O)NC(=O)[C@H](CO)NC(=O)[C@H](CCCCN)NC2=O)[C@@H](C)CC)NC(=O)[C@H](CC(C)C)NC(=O)[C@H](CO)NC(=O)[C@H](CCC(N)=O)NC1=O [Peptide V516A] (Ac-EKI[S5]QSL[S5]FI[S5]KSD[S5]LLHNA-NH2; staple 4-8, 11-15)	600 ± 30	49
CC[C@H](C)[C@H](NC(=O)[C@H](CCCCN)NC(=O)[C@H](CCC(=O)O)NC(C)=O)C(=O)N[C@@]1(C)CCCC=CCCC[C@@](C)(C(=O)N[C@@H](Cc2ccccc2)C(=O)N[C@H](C(=O)N[C@@]2(C)CCCC=CCCC[C@@](C)(C(=O)N[C@@H](CC(C)C)C(=O)N[C@@H](CC(C)C)C(=O)N[C@@H](Cc3c[nH]cn3)C(=O)N[C@@H](CC(N)=O)C(=O)N[C@H](C(N)=O)C(C)C)NC(=O)[C@H](CC(=O)O)NC(=O)[C@H](CO)NC(=O)[C@H](CCCCN)NC2=O)[C@@H](C)CC)NC(=O)[C@H](CC(C)C)NC(=O)[C@H](CO)NC(=O)[C@H](C)NC1=O [Peptide Q501A] (Ac-EKI[S5]ASL[S5]FI[S5]KSD[S5]LLHNV-NH2; staple 4-8, 11-15)	280 ± 430	12
CC[C@H](C)[C@H](NC(=O)[C@H](CCCCN)NC(=O)[C@H](CCC(=O)O)NC(C)=O)C(=O)N[C@@]1(C)CCCC=CCCC[C@@](C)(C(=O)N[C@@H](Cc2ccccc2)C(=O)N[C@H](C(=O)N[C@@]2(C)CCCC=CCCC[C@@](C)(C(=O)N[C@@H](CC(C)C)C(=O)N[C@@H](CC(C)C)C(=O)N[C@@H](Cc3c[nH]cn3)C(=O)N[C@@H](C)C(=O)N[C@H](C(N)=O)C(C)C)NC(=O)[C@H](CC(=O)O)NC(=O)[C@H](CO)NC(=O)[C@H](CCCCN)NC2=O)[C@@H](C)CC)NC(=O)[C@H](CC(C)C)NC(=O)[C@H](CO)NC(=O)[C@H](CCC(N)=O)NC1=O [Peptide N515A] (Ac-EKI[S5]QSL[S5]FI[S5]KSD[S5]LLHAV-NH2; staple 4-8, 11-15)	2710 ± 2930	59
CC[C@H](C)[C@H](NC(=O)[C@H](C)NC(=O)[C@H](CCC(=O)O)NC(C)=O)C(=O)N[C@@]1(C)CCCC=CCCC[C@@](C)(C(=O)N[C@@H](Cc2ccccc2)C(=O)N[C@H](C(=O)N[C@@]2(C)CCCC=CCCC[C@@](C)(C(=O)N[C@@H](CC(C)C)C(=O)N[C@@H](CC(C)C)C(=O)N[C@@H](Cc3c[nH]cn3)C(=O)N[C@@H](CC(N)=O)C(=O)N[C@H](C(N)=O)C(C)C)NC(=O)[C@H](CC(=O)O)NC(=O)[C@H](CO)NC(=O)[C@H](CCCCN)NC2=O)[C@@H](C)CC)NC(=O)[C@H](CC(C)C)NC(=O)[C@H](CO)NC(=O)[C@H](CCC(N)=O)NC1=O [Peptide K498A] (Ac-EAI[S5]QSL[S5]FI[S5]KSD[S5]LLHNV-NH2; staple 4-8, 11-15)	600 ± 20	42
CC[C@H](C)[C@H](NC(=O)[C@H](CCCCN)NC(=O)[C@H](CCC(=O)O)NC(C)=O)C(=O)N[C@@]1(C)CCCC=CCCC[C@@](C)(C(=O)N[C@@H](Cc2ccccc2)C(=O)N[C@H](C(=O)N[C@@]2(C)CCCC=CCCC[C@@](C)(C(=O)N[C@@H](CC(C)C)C(=O)N[C@@H](CC(C)C)C(=O)N[C@@H](C)C(=O)N[C@@H](CC(N)=O)C(=O)N[C@H](C(N)=O)C(C)C)NC(=O)[C@H](CC(=O)O)NC(=O)[C@H](CO)NC(=O)[C@H](CCCCN)NC2=O)[C@@H](C)CC)NC(=O)[C@H](CC(C)C)NC(=O)[C@H](CO)NC(=O)[C@H](CCC(N)=O)NC1=O [Peptide H514A] (Ac-EKI[S5]QSL[S5]FI[S5]KSD[S5]LLANV-NH2; staple 4-8, 11-15)	520 ± 70	55
CC[C@H](C)[C@H](NC(=O)[C@H](Cc1ccccc1)NC(=O)[C@]1(C)CCCC=CCCC[C@](C)(NC(=O)[C@@H](NC(=O)[C@H](CCCCN)NC(=O)[C@H](CCC(=O)O)NC(C)=O)[C@@H](C)CC)C(=O)N[C@@H](CCC(N)=O)C(=O)N[C@@H](CO)C(=O)N[C@@H](CC(C)C)C(=O)N1)C(=O)N[C@@H](CCCNC(=N)N)C(=O)N[C@]1(C)CCCCCCC=CCCC[C@@](C)(C(=O)N[C@H](C(N)=O)C(C)C)NC(=O)[C@H](Cc2c[nH]cn2)NC(=O)[C@H](CC(C)C)NC(=O)[C@H](CC(C)C)NC(=O)[C@H](CCC(=O)O)NC(=O)[C@H](CC(=O)O)NC(=O)[C@H](CO)NC1=O [Peptide 4bf] (Ac-EKI[S5]QSL[S5]FIR[R8]SDELLH[S5]V-NH2; staple 4-8, 12-19)	–	88.9
CC[C@H](C)[C@H](NC(=O)[C@H](CCCCN)NC(=O)[C@H](CCC(=O)O)NC(C)=O)C(=O)N[C@@]1(C)CCCC=CCCC[C@@](C)(C(=O)N[C@@H](Cc2ccccc2)C(=O)N[C@H](C(=O)N[C@@]2(C)CCCC=CCCC[C@@](C)(C(=O)N[C@@H](CC(C)C)C(=O)N[C@@H](CC(C)C)C(=O)N[C@@H](Cc3c[nH]cn3)C(=O)N[C@@H](CC(N)=O)C(=O)N[C@H](C(N)=O)C(C)C)NC(=O)[C@H](C)NC(=O)[C@H](CO)NC(=O)[C@H](CCCCN)NC2=O)[C@@H](C)CC)NC(=O)[C@H](CC(C)C)NC(=O)[C@H](CO)NC(=O)[C@H](CCC(N)=O)NC1=O [Peptide D510A] (Ac-EKI[S5]QSL[S5]FI[S5]KSA[S5]LLHNV-NH2; staple 4-8, 11-15)	1100 ± 80	44
CC[C@H](C)[C@H](NC(=O)[C@H](CCCCN)NC(=O)[C@H](CCC(=O)O)NC(C)=O)C(=O)N[C@@]1(C)CCCC=CCCC[C@@](C)(C(=O)N[C@@H](Cc2ccccc2)C(=O)N[C@H](C(=O)N[C@@]2(C)CCCC=CCCC[C@@](C)(C(=O)N[C@@H](C)C(=O)N[C@@H](CC(C)C)C(=O)N[C@@H](Cc3c[nH]cn3)C(=O)N[C@@H](CC(N)=O)C(=O)N[C@H](C(N)=O)C(C)C)NC(=O)[C@H](CC(=O)O)NC(=O)[C@H](CO)NC(=O)[C@H](CCCCN)NC2=O)[C@@H](C)CC)NC(=O)[C@H](CC(C)C)NC(=O)[C@H](CO)NC(=O)[C@H](CCC(N)=O)NC1=O [Peptide L512A] (Ac-EKI[S5]QSL[S5]FI[S5]KSD[S5]ALHNV-NH2; staple 4-8, 11-15)	880 ± 60	45
CC[C@H](C)[C@H](NC(=O)[C@H](C)NC(=O)[C@]1(C)CCCC=CCCC[C@](C)(NC(=O)[C@@H](NC(=O)[C@H](CCCCN)NC(=O)[C@H](CCC(=O)O)NC(C)=O)[C@@H](C)CC)C(=O)N[C@@H](CCC(N)=O)C(=O)N[C@@H](CO)C(=O)N[C@@H](CC(C)C)C(=O)N1)C(=O)N[C@@]1(C)CCCC=CCCC[C@@](C)(C(=O)N[C@@H](CC(C)C)C(=O)N[C@@H](CC(C)C)C(=O)N[C@@H](Cc2c[nH]cn2)C(=O)N[C@@H](CC(N)=O)C(=O)N[C@H](C(N)=O)C(C)C)NC(=O)[C@H](CC(=O)O)NC(=O)[C@H](CO)NC(=O)[C@H](CCCCN)NC1=O [Peptide F505A] (Ac-EKI[S5]QSL[S5]AI[S5]KSD[S5]LLHNV-NH2; staple 4-8, 11-15)	1390 ± 100	64
CC[C@H](C)[C@H](NC(=O)[C@H](Cc1ccccc1)NC(=O)[C@]1(C)CCCC=CCCC[C@](C)(NC(=O)[C@H](C)NC(=O)[C@H](CCCCN)NC(=O)[C@H](CCC(=O)O)NC(C)=O)C(=O)N[C@@H](CCC(N)=O)C(=O)N[C@@H](CO)C(=O)N[C@@H](CC(C)C)C(=O)N1)C(=O)N[C@@]1(C)CCCC=CCCC[C@@](C)(C(=O)N[C@@H](CC(C)C)C(=O)N[C@@H](CC(C)C)C(=O)N[C@@H](Cc2c[nH]cn2)C(=O)N[C@@H](CC(N)=O)C(=O)N[C@H](C(N)=O)C(C)C)NC(=O)[C@H](CC(=O)O)NC(=O)[C@H](CO)NC(=O)[C@H](CCCCN)NC1=O [Peptide I499A] (Ac-EKA[S5]QSL[S5]FI[S5]KSD[S5]LLHNV-NH2; staple 4-8, 11-15)	1300 ± 890	24
